In US20120003214A1:

What was measured:
[1] = target: apical membrane antigen-1 (AMA1) of Plasmodium falciparum, strain 3D7 (Plasmodium falciparum); experiment: protein bioarray
[2] = target: apical membrane antigen-1 (AMA1) of Plasmodium falciparum, strain 3D7 (Plasmodium falciparum); experiment: biosensor, purified proteins
[3] = target: apical membrane antigen-1 (AMA1) of Plasmodium falciparum, strain 3D7 (Plasmodium falciparum); experiment: ELISA, biosensor and protein bioarray
[4] = target: apical membrane antigen-1 (AMA1) of Plasmodium falciparum, strain 3D7 (Plasmodium falciparum); experiment: not stated (screen of a random mutagenesis library against AMA1)

Row | Binder | Kd [1] | fold better affinity than 12Y-2 [2] | fold better affinity than 14M-15 [3] | fold enhanced affinity over the wild type 12Y-2 [4]
1 | VNAR 22A-2 (12Y-2 Thr39Ser; Pro90Leu) (VNAR) VNAR: AWVDQTPRTATKETGESLTINCVLRDASFELKDTGWYRSKLGSTNEQSISIGGRYVETVNKGSKSFSLRISDLRVEDSGTYKCQAFYSLLLGDYNYSLLFRGEKGAGTALTVK | 2.6 nM | 20 fold | 2 fold | 
2 | VNAR 14M-15 (12Y-2 Pro90Leu variant) (VNAR) VNAR: AWVDQTPRTATKETGESLTINCVLRDASFELKDTGWYRTKLGSTNEQSISIGGRYVETVNKGSKSFSLRISDLRVEDSGTYKCQAFYSLLLGDYNYSLLFRGEKGAGTALTVK | 6.5 nM |  |  | 10 fold
3 | VNAR 14M-8 (12Y-2 Phe100Leu) (VNAR) VNAR: AWVDQTPRTATKETGESLTINCVLRDASFELKDTGWYRTKLGSTNEQSISIGGRYVETVNKGSKSFSLRISDLRVEDSGTYKCQAFYSLPLGDYNYSLLLRGEKGAGTALTVK |  |  |  | 10 fold
